Results on 17 sequences are retold here after a protein production outcome set (Wang et al. 2014).

The data set can be described thus: label from the status in PepcDB records.
As to “MSQVASLLIALPLISAFFVPVLKQIKKSLIFPYLTLITLLQTGIAGWVFYEVYTTGKPILIYAGGWRPPVGINLYIGPFAALFILIIAIVSFLTSLFSMRMVKVEPIDKYAMLFLLLMLGATGMIATGDIFNLFVFMEITAITAYALTAYNKTGEAAEASMKYMILGGIGSSFFLIGVALIYGVTGTLNMAQLAEFASAGKIMPVVAQVGLSLIIFGLAVEAELFPLNAWAPDAYQAAPHPITVMFSAFVVKAGLYAMARILYLLQKVNGWDSVLKLLLIMATLTVIFAELSALRQKDVKRMIAYSSIGQVGLIALAFSLGTQAGVDAGVFHMLNHAIVKTMMFLGVGYVGVMVGGTRIEDFRGLGKRMPLTALSLSVGAISTVGVPLFNVFWSKFRIIVATIQAGFVWPAVLVLFASVVEAVYYFRLLHVMWFAGEGERIKEGWIVVFLLLLALIIVGIGIYPTPVWEIVKRAGSDIFAVKVYINNVPLLGVVQ”, the protein production entry was “failed”.

For the sequence “MSQYVVCALYKFVELNNYQELREPLLALMEKHHIRGTLLLAGEGINGTVASDRAGIDTLLEWLNTEPRLTGTVYKESYSETQPFNRTKVKLKKEIVTLGVEGIDPRHVVGTYVKPQDWNDLIADPEVFVVDTRNDYEIEIGTFKGAVNPNTETFREFPDYVKENMDPAKHKKVAMFCTGGIRCEKSTAYMKEQGFEEVYHLEGGILKYLEEVPQEESMWEGDCYVFDGRVAVNHQLEKADYDLCNACRLPITDEDKQSELFEQGVSCPKCHGKHSEEQVERFREREKQVSLANQRGEQHVGGESAKQRAQRREAKLAKKAAQRKQA”, the protein production entry is “failed”.

Turning to “MSRAGRIAAETRAAWYAFVRRRTAVFFTFFFPVILILIFGALVGTDPTGGGLFAEPAGYYVAGYLAVVVLFTPLSRVGSEVARHRSGNRFEKLATTPLSRAEWLFAQTLVNVVVIGLASLLILGLVLLVTDAAFTFSLLVVPYVALGVALFCGLGAILGRIADSQDGAIAASNGIAIPLLFLSETFVPPALLPEWFVPLLDLSPLTYFARGLRAATYEPVANTGGTGLVGSDPYLNLVVLAAGAVVFFAAGAYALPRTD”, the protein production entry is on record as “failed”.

In the case of “MSRDDNGWSKLYPDLLRSIFESLSCLDFHRAGTVCSNWYAVSRSCPLYPWRIVFRGKNSVLFDPIQDKIYTKNLLGIDLSKIHCLASYGNWILIVDPRLDFYLLNVFTRETINLPSLESSLRGDRPFRFIRNDDESGYFLELYGTKFLLTWNDFRFEKTAILWVNGRNGDYVVAWAIKQFYIFSYKKIGNDDDDKRWSITCTQCEDMAYKDNKLYVYTFDHYINILDFSGNSPKEPMEENPYLSHPFSFVDAIYKLRLAVTREGKVLIVLSLVGLDKKICIYKLNLKIGDWEIVESLGDEMLIFGHGVTIRAPDKDISGGGLKSDSICFLYDDYLSDHYLTMKRQPICGVFDLATSTITWHTRLEDLSSKICWFVPGCA”, the protein production entry is “failed”.

For the sequence “MSRFLTFFLIVFSYALQAQVASLTNAILYRNDGNLIKAKEEIDKAVVNEKTIGMPKTWFYTGLIYKDLYQATPTDLAALTTSTAAFKKVFELEKPAGEFSKKSQEALEQIWAISINNGVNLYQLENYRQAITDFERAQGIKPGDTTAYVYAFYAANELKDQALLEKYSSALVRLNYASEAVYYIDIESLMDKNLLDSAYTVSKKALTNYPSDIALKTQQTELMVKMNKTQEAIENLKVLSTKNPKDVQLLINIGSQYTNLNDEPHAAEYYQKALAIDSVNFNANYNMAVFSLRKANEISKQIVVSDNNLKKSFKAIPTVATDPLRQNLQKELAVSTKYYNRAVLGAKDEEAKKNVKTLQDNITSFEDQFLK”, the protein production result is listed as “failed”.

Turning to “MSRKLQDSAFRLLKKAAYDIDHDRYKKAFENLDKVEKIEKEVNNPEISYHLLFFKGFAKYRIDELEESLALFGKALEISWDLFSKEPEKEDYRSFMRDTIGSIGDILLKLEDPVKAREYISPMKGIFEKTVLGFEKLLESDPENPEYLEDFLKTIEHIGLCFEAGELTGDAVPLFDKKFDLIEKLLKSETEISEHLSSLDDSLMNFGRMCEGEEYLEEEYIEEAKRVYDRAIEIYGKVLDKDPENSETKVYLSYIYRYMAGMYSDQENLVKAEECYKEALGLLESEIENEPENIPVSENIEVSENISVPKNILFSMAIADMYKDSGLIFSDTEDTTKARDYYTKARETFRGLINKYPDLLEADKNLASSLDELAELFSEIGDFESAEMCYKDELNIYENLLQKEPENPENPEYSLKLSDIYRELGDLFAEEEEIEKARAYYDKEIEIYENLHPAEADKLMLEANKADTWNQIGRLYAEEEPETAVQYHERALPIFLEAFESDPTSEFFHEELLETLTVLGTLFKENREFEKAIRMYERVLEVQKQLLEIMPPASCHDHDHDHNLNHSHNLNHSHNLNHTHDLNHDHDLNHDLDHDHEMDHDHALEHCHDLDIETTYFELGVLHSEIGDEEKASVYHRQALERFEQIIAEQSGNPEILILTSGKAFFSGMSLLEKLESENKDSSIARKYYELALRTIEKLYEAYPMNLKLQEMLASFAEQIGDIYRDADKLEETIQEYEYAYRSLKILYENDPENPKHLHHMLGALNNIGIGYSVTDQQEKGKECFEKALALNESLAKSNPEDLNPLRRNFLLFSNYANLLEELGDSKTAKEYRKKAEELDAKLTEEDPEWTSLVEEL”, the protein production result is listed as “failed”.

As for “MSRKPLIAGNWKMNLNHYEAIALVQKIAFSLPDKYYDRVDVAVIPPFTDLRSVQTLVDGDKLRLTYGAQDLSPHDSGAYTGDVSGAFLAKLGCSYVVVGHSERRTYHNEDDALVAAKAATALKHGLTPIVCIGEHLDVREAGNHVAHNIEQLRGSLAGLLAEQIGSVVIAYEPVWAIGTGRVASAADAQEVCAAIRKELASLASPRIADTVRVLYGGSVNAKNVGDIVAQDDVDGGLVGGASLDGEHFATLAAIAAGGPLP”, the protein production result is reported as “not failed”.

In the case of “MSRKSAPSSTAAPAPKLAADRIRATARELFYREGIRAVGVDAIVSAAGVTKPSLYRSFSSKDELAASYLRDYETEFWSRFDAGAQRHPDDPRAQLRLYLESLAERAANAGPYRGCGLSNAAVEYPDPDHPARLVAEAHKRELRRRLIDMARRMGAREPEVLGDGLMLLIEGAFISGQLFHGDGPARHVARLADRLIEASL”, the protein production entry is reported as “failed”.

Consider “MSRLSAAVVAIDGPAGTGKSSVSRRLARELGARFLDTGAMYRIVTLAVLRAGADPSDIAAVETIASTVQMSLGYDPDGDSCYLAGEDVSVEIRGDAVTRAVSAVSSVPAVRTRLVELQRTMAEGPGSIVVEGRDIGTVVFPDAPVKIFLTASAETRARRRNAQNVAAGLADDYDGVLADVRRRDHLDSTRAVSPLQAAGDAVIVDTSDMTEAEVVAHLLELVTRRSEAVR”, for which the protein production entry is on record as “not failed”.

Take “MSRMMPARVRSEGIALYAKGFLNDPIETDFKLTAEIDGEEVSYDLDGAQDSCTCAVFQQNHRYCKHIAAIEEYLKNQDKGSQETKDKEIKGAERALFGENVAFLDAVNGETQLNFNTDQYSIEVQIEDNSQLYDYFSMDYFLYFDLKLRSKNLGRSYVIKDIPYFLRALKNYSQYSLGSLHYIDLFFDNFDEASQEFLTFLLKIDSKSDEALTKSLYIKNGRYLNIPFLFLEEAMDLVSALENYQLQITGRTVNYFTFIALDNDSEIFKFKVESQQDYIELKLYSEDYHNFYDYSLLYANNVFYKLNQEQRRLLLVLDKQFAKKSQIKFSYADKDKLAQALQQLSTLGEIEAPDHFVVRPFDAKFTFDLLEDQTISLAMTFDYGSFSIDSFHDLETLEFSRDLRKEQKIFALMERLQFAKAFNSSLNIPENLSEHFFLKILPAFQKLGQIELSPTLRNMRMDEVPEIHIDSQGGLLDISFDIPQVEDGEFANVIAKLQENAEFYISESGKFYHFNEKFDRLKAALNELDDQFVIQGSSLHVNINRSFQISKIFENIGGASFSEKFKSLYQHLTHPEEFPYEKPEHIKASLRSYQETGVRWMSMLSHYNLGGILADDMGLGKTVQAITFILSNLKKDESVLITAPASLTYNWASEFEKFTDEIDFAVIDGTKAERSKEIQEKHQIYITSYGSFLKDFEDYQDKKLNYLLLDEAQVVKNYSSKTNKSLSALNVEHTFALSGTPLENRIEEIWAIFQVVMPGFLPKREKFNKMEPSVISRLIQPFIMRRKKEDVLEELPEKMEITVYNQLADDQKVIYLAQLELMQKQVLEMDSAALSRSRIEILAGITRLRQICNTPALFMDDYKGSSGKLERLRELLAQIKDSGHRPLIFSQFTKVFPHIEKLMEEQEMTAYKLTGSTPIKDRLSMVQAFNAGSRDAFLVSLKAGGVGLNLTSADVVILVDLWWNPAVEEQAIARAHRMGQKNTVEVIRLITKGTIEEKIMEIQERKKDLIANVLEGDTVDKVLSEAEIREILGV”: the protein production result was “failed”.

As for “MSRNEVLLNGDINFKEVRCVGDNGEVYGIISSKEALHIAQNLGLDLVLISASAKPPVCKVMDYNKFRYQNEKKIKEAKKKQKQIEIKEIKLSTQIAQNDINYKVKHAREFIESNKHVKFKVVLKGRESQNSKAGLDVLFRVQTMMQDLANPEKEPKTEGRFVSWMFVPKAKEAPKNEKKTKENNPPFNRINLMKGENHAKNED”, the protein production result is recorded as “failed”.

Take “MSRNKGVQYLSSSEHSLKDYLPILSMAGLILIVQVLALLLSMPMEINDMQAFEDPTQVSNSIYYIVMILVFTLFVLIAIKKNMKWIISLLIYLAIVSTLYYVFFALFTLIPALAGLENIASLLLSIGLTVLLYKYPEWYVIDLLGVCIAGGVSALIGISLSIIPVVVLLILLAVYDAISVYKTKHMIAMAEGVMDLKLPILFIIPKHLNYSFITEGFKEGEKREAFFMGLGDAVMPTLLVVSANVFLENGGLSYPVLGAMLGTLVGHIFLSILVMRGKPQAGLPFLNSGAIIGFFIGVLFSGASIL”: the protein production entry was “failed”.

Consider “MSRPPTTPSAPQTADLVRPARRGDLDGLLALARAADAGMTNLPADRAALDDRLAASEQALIDPETRNAGAAVYLVLERQGRVIGAACVFARIGVAQPFYSYRVTRLTQLSPDLGKRVEMSVLTLVNDLTDQAEVGGLFVAPDAR”, for which the protein production entry is “failed”.

Consider “MSRRGLLLMGQCMPCIKQNASKIRIRRMELDKNLNMYFKKDEFYFAHDPQKVCKTGDVVLIRELPERLTRLITHNVEKVVYPLGDITDPLTGKKVVVGNYREDIEMANQLFGKSEKAFDYEKAPPRGRLEGTKDFTHGETYIKYHEDGKDQPFAV”, for which the protein production entry is listed as “failed”.

With “MSRRNGGLFPTDLQTIARDIGSLLLMEAGLMTITAAVALGFQEFYAAFGFFTAAGMTAGVGGLANRGFSDAPAPQMKHGMVIAAGGWLLVAAFGSLPFLLTAWFTPPAVMDTFVPVGTDTSTWAPIRVGGTTTLSSLAYFRNPLHAFFESMSGWTGSGLTMAIHEPSLPRAVQWWRSFIQYVGGVGVIVLTVSILSRPGSGSYALYQSEAREEKIHPSVVSTVRTVWKLVVGYTVLSFALLFGAILASDSEYAESLPLWEVAWQALNHAMTGLTTGGFSVTDNSIATYNSPLVETVLLPIMILGAIAFPVHYVVLHDRQVRELVTDLQTRWLFILLTVGVVGLSVQNAWSVPATTEAFATQSFLPVSVPMLNAAQLDAVRDSTFQWVSALSCTGFQSAPIGRWLAGGKVLVAGAMVLGGAAGSTVGGIKIIRGYTIVRGIIWQFSRVFLPTNAVITARIGNRTLDRESMEREFSEAAIVTLLWLIILIISSVVLTNVAGPAFGYADALFEVASAQGNVGLSSGITGPSMPAIAEGMFVLNMWVGRLEIIPILVFIRAGLYGLDP”, the protein production entry is “failed”.

Turning to “MSRRYWQLDVFAERPLTGNGLAVFDDASALDDAAMQAWTRELRQFESIFLLPGDDPRAFRARIFTLEEELPFAGHPLLGAAALLHHLRGGDNEQHWTLHLASKSVALRSVRAGSGFYAEMDQGRAEFGATPDAGTCRWFAEAFSLSANDLSGHPPRVVSTGLPYLLLPVTAEALGRARQVNDLQEALDKLGAAFVYLLDVDGREGRTWDNLGLVEDVATGSAAGPVAAYLVEYGLAARGEPFVLHQGRFLERPSRLDVQVATDGSVRVGGHVQLLARAELLTSA”, the protein production entry is given as “not failed”.

Turning to “MSRSQLTILTNICLIEDLETQRVVMQYRAPENNRWSGYAFPGGHVENDEAFAESVIREIYEETGLTIQNPQLVGIKNWPLDTGGRYIVICYKATEFSGTLQSSEEGEVSWVQKDQIPNLNLAYDMLPLMEMMEAPDKSEFFYPRRTEDDWEKKIF”, the protein production entry is “not failed”.
